In US20230257435A1, “Wound Healing Composition and Uses Thereof” (AGENCY FOR SCIENCE, TECHNOLOGY AND RESEARCH, priority 2020, published 2023):

How the values were obtained:
HaCaT cells = experiment: Collective migration on soft/stiff substrates (stencil barrier); assay type: cell-based, human
Description: Tissue culture plates were coated with Col-T-gel (Fischer Scientific) of stiffness ranging from 0.8 KPa (soft) to 30 KPa (stiff) as per manufacturer recommendations and allowed to solidify for 40 min at 37° C. inside tissue culture incubators. Some experiments were performed with cells seeded on the poly-hydrogel plates of defined stiffness: 0.2 kPa and 16 kPa soft and hard polyhydrogels, respectively (CytoSoft, Advanced Biomatrix, Inc.,). The determination of stiffness of silicone substrates were done by the manufacturer as per previously published protocols. For certain experiments, indicated amounts of sAgrin was incorporated into the 0.8 KPa collagen gels before gelation process. Upon gelation, trypsinized cells or excised mouse skin explants were plated onto the gels of different stiffness either alone or containing sAgrin. The cells/tissues were incubated under standard culture condition with 500 μl recommended culture medium for the indicated days. The crossbow shaped micropatterns with fibronectin coated islands were generated by microlithography on a 19.5×19.5 mm coverslide from Cytoo, Inc., France. The micropatterns had surface areas of 800μ^2 or 1600μ^2, respectively. Fifty thousand cells after initial siRNA treatment was placed on the micropatterns for 4-6 h before processing them for immunofluorescence. For some experiments, 10 μg/ml sAgrin was added on the slides 18 h prior to the addition of cells.
A confluent monolayer of control and Agrin depleted cells in a 6-well plate was subjected to a unidirectional scratch using a 20 μl pipette tip. This was followed by washing with 1×PBS at room temperature and incubation in complete culture media at 37° C. and 5% CO2 with or without sAgrin used as indicated. Phase contrast images of the wound area were taken periodically at the indicated time-points. For some wound-healing migration assays, keratinocytes were cultured on either soft or stiff substrates within a stencil barrier (Nalge Nunc., Inc) for 18 h. Upon removal of the barrier, the cells were allowed to migrate and imaged using an Axiovert 200 inverted microscope at indicated time-points.

mouse skin punch wounds [1] = experiment: Punch-biopsy wound healing model, non-splinted; assay type: in vivo
Description: (§1) Six to eight to week old female experimental ICR (nomenclature: IcrTac:ICR) mice purchased from InVivos were used for punch-biopsy wound healing in vivo assays. In the ex-vivo mouse skin explant assay, random ratios of male and female new born ICR mouse pups were used. Wherever possible, the experiments were performed taking into consideration an ethical and reductionist approach of animal usage. Animal studies were not performed in a blinded fashion. The animals were randomly assigned to different experimental groups. The number of animals used for each experiment is indicated in the legend as n=x mice per group. All animal experiments performed were done in accordance with experimental protocols reviewed by the Biological Resource Center (BRC), Agency for Science Technology and Research (A*STAR) under strict compliance to the Institutional Animal Care and Use Committee (IACUC) guidelines for ethical use of animal models in biological research.
(§2) The mice were housed under standard conditions of 21° C. and a 12 h light-dark cycle with free access to food. Subsequently, the mice were intraperitoneally (i.p.) anesthezised using Ketamine 100 mg/kg and Xylazin 10 mg/kg diluted in […] of saline solution. The fur was shaved from the base of the neck towards the back on the entire shoulder region. The skin was wiped with an alcohol swab and 10% povidone-iodine (Betadine) antiseptic solution. Circular symmetrical 4 mm wounds were inflicted on either side of the midline in the shoulder region using a sterile 4 mm punch biopsy needle (Integra Miltex, Integra York, P.A., Inc.). The wound skin was carefully removed using a scalpel and a pair of scissors to generate a full-thickness wound that were left open for topical administrations during the analysed time periods. For splinted wound healing models, a 10 mm transparent donut shaped nylon sheet (Grace Bio-Laboratories, Bend, Oreg.) was placed around the 4 mm wound. The splint was placed with the wound at the center, glued to the skin by adhesive (Krazy Glue®; Elmer's Inc.), and covered by Tegaderm dressing. The wounds were treated with different formulations based on either petroleum jelly (Vaseline), a thermoresponsive hydrogel (Pluronic F127-Sigma) or a commercially available skin ointment (Aquaphore-Beiersdorf, Inc.). For Vaseline based ointment cream preparation, 10 mg per cm^2 vaseline ointment was mixed with filtered PBS solutions containing the indicated amounts of Agrin (100 μg, 200 μg or 500 μg) and 100 μg BSA (w/w) were used and applied topically every two days. For siRNA mediated knockdown experiments, 75 nM of indicated siRNAs were incubated with lipofectamine in PBS. Subsequently, a 1:1 mixture of PBS (containing the siRNAs): Aquaphore was applied topically on the wound region every two days. A topical formulation comprising of 20% (w/w) Pluronic F127 (Sigma) was used to dissolve in sterile and 0.22μ filtered solution containing a final concentration of 200 μg/ml sAgrin or BSA. This mixture was dissolved overnight at 4° C. to ensure that liquid phase is achieved. The mixture forms a homogenous gel at temperatures above ˜20° C. and was dispersed topically to cover the wound. Wound closure was assessed using a Vernier caliper every alternate day. For both models, the animals were caged individually throughout the observed time-points of healing at the institutional animal facility. All wound healing animal experiments performed were done in accordance with experimental protocols reviewed by the Biological Resource Center (BRC), Agency for Science Technology and Research (A*STAR) under strict compliance to the Institutional Animal Care and Use Committee (IACUC) guidelines for ethical use of animal models in biological research.
(§3) Human skin equivalents and mice skin tissues were harvested, embedded, and subjected to routine histology using Hematoxylin and Eosin. For immunostaining, the tissues were fixed for 24 h in 10% neutral buffered formalin solution. […]

mouse skin punch wounds [2] = experiment: Punch-biopsy wound healing model, splinted; assay type: in vivo
Description: as §1, §2, §3

B1: sAgrin: C-terminus recombinant Agrin fragment containing 8 amino acid 'Z8' insert and LG3 domain (SEQ ID NO: 7), His-tagged, expressed in E. coli (protein)
chain: DTLAFDGRTFVEYLNAVTESELANEIPVEKALQSNHFELSLRTEATQGLVLWSGKATERADYVALAIVDGHLQLSYNLGSQPVVLRSTVPVNTNRWLRVVAHREQREGSLQVGNEAPVTGSSPLGATQLDTDGALWLGGLPELPVGPALPKAYGTGFVGCLRDVVVGRHPLHLLEDAVTKPELRPCPTP
modifications: His tag
Question: Which “collective migration rates on compliant substrates” value (HaCaT cells; 0.8 kPa, sAgrin 10 μg/ml, 24 h) does the source give for B1 here?
Answer: significantly promoted migration rates that was comparable to those in stiff ECM alone

Question: What about the “K17 expressing leader cells on soft substrates” value (HaCaT cells; soft substrate, sAgrin 10 μg/ml, 4 h) of the same molecule?
Answer: stimulated collective migration by activating K17 expressing leader cells

Question: And the “fraction of K17 expressing leader cells in Agrin depleted cells” value (HaCaT cells; stiff ECM with sAgrin, 4 h)?
Answer: significantly restored

Question: And the “migratory potential of Agrin depleted keratinocytes on stiff substrates” value (HaCaT cells; stiff matrix with 10 μg/ml sAgrin)?
Answer: significantly rescued

Question: What about the “K17 expressing migrating cells after MMP12 knockdown” value (HaCaT cells; stiff substrates (30 kPa), 20 μg/ml sAgrin) of the same molecule?
Answer: not restored by the nourishment of sAgrin

Question: What about the “migratory epithelial tongue from wound edges” value (mouse skin punch wounds [1]; day 2) of the same molecule?
Answer: significant extension of the migratory epithelial tongue

Question: And the “K17 outgrowth, MMP12 expression and pMLC activation” value (mouse skin punch wounds [1]; day 2, wound edges and beds)?
Answer: robust K17 expressing keratinocyte outgrowth, MMP12 expression and pMLC activation

Question: And the “angiogenesis (blood vessel number and diameter)” value (mouse skin punch wounds [1]; day 6)?
Answer: steady enhancement in angiogenesis with an increased number of blood vessels and their respective diameters

Question: What about the “Ki67+ve proliferating cells” value (mouse skin punch wounds [1]; day 7 post-injury) of the same molecule?
Answer: enhancement of Ki67+ve proliferating cells

Question: And the “rates of wound healing, Pluronic F-127 hydrogel” value (mouse skin punch wounds [1]; sAgrin 200 μg vs control hydrogel)?
Answer: significantly boosted the rates of wound healing in vivo

Question: What about the “healing rates of punch wounds, Vaseline ointment” value (mouse skin punch wounds [1]; sAgrin 100, 200 or 500 μg in Vaseline vs BSA) of the same molecule?
Answer: significantly accelerated the healing rates of mice punch wounds in a dose-dependent fashion

Question: What about the “wound healing, Pluronic F127” value (mouse skin punch wounds [2]; 200 ug sAgrin vs collagen or BSA, 12 days) of the same molecule?
Answer: significantly accelerated wound healing when compared to similar concentrations of collagen or BSA

Question: What about the “pMLC expression in wound edges and beds under MMP12 depletion” value (mouse skin punch wounds [2]; MMP12 siRNA, 200 μg sAgrin) of the same molecule?
Answer: significantly attenuated in MMP12 depleted skin sections

Question: And the “sAgrin accelerated healing rates and re-epithelialization under MMP12 depletion” value (mouse skin punch wounds [2]; MMP12 siRNA, 200 μg sAgrin, within 10 days)?
Answer: dramatically reduced upon MMP12 depletion

Question: What about the “CD-31 expressing blood vessels under MMP12 suppression” value (mouse skin punch wounds [2]; day 10) of the same molecule?
Answer: failed to induce robust CD-31 expressing blood vessels

Question: What about the “sAgrin induced mature and mixed collagen fiber deposition under MMP12 depletion” value (mouse skin punch wounds [2]; day 10) of the same molecule?
Answer: significantly diminished upon MMP12 depletion

Question: What about the “deposition of collagen fibers in wound beds” value (mouse skin punch wounds [2]; day 10, vs BSA and Collagen) of the same molecule?
Answer: higher deposition of mature and mixed collagen fibers

Question: What about the “histology of wound area” value (mouse skin punch wounds [2]; day 10 post-wounding, vs BSA or Collagen) of the same molecule?
Answer: predominantly represented healed skin with the emergence of regenerated hair follicles

Question: What about the “number of blood vessels and their diameters” value (mouse skin punch wounds [2]; day 12 post-injury, vs BSA or Collagen) of the same molecule?
Answer: increased number of blood vessels and their diameters
